Where two headings read alike, the source gives them in different places. Positions of bridges follow the written chain, without caps; N, C: chain ends. Non-standard residues stand in square brackets, D forms with d. No end group written: not given here. Ida bridge carrying fatty‑acid side chain of Intermediate A‑1 = not defined here; Aib = CC(C)(N)C(=O)O
T1: GIPR (UniProt P48546 22-466, limits assumed)
T1 sequence (looked up): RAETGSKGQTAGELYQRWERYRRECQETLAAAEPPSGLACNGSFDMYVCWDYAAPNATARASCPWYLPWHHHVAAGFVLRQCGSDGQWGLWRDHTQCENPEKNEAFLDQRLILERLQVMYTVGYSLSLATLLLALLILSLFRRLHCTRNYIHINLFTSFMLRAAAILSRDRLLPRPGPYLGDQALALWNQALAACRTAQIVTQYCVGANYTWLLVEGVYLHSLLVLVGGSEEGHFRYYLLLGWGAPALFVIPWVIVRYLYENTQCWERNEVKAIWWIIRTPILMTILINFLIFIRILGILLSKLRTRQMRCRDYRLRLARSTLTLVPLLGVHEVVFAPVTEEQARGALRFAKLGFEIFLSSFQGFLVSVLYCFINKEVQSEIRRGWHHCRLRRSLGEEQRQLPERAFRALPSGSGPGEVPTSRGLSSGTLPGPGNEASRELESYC

B1: polypeptide WX-005 (peptide)
peptide: Y[Aib]EGTFTSDYSI[Aib]LDKKAQKAFVEWLIAGGPSSGAPPPS-NH2
modifications: linker 17-20 via Ida; also: Ida bridge carries fatty-acid side chain of Intermediate A-1
B2: polypeptide WX-009 (peptide)
peptide: Y[Aib]EGTFTSDYSI[Aib]LDKKAQKEFVEWLIAGGPSSGAPPPS-NH2
modifications: linker 17-20 via Ida bridge carrying fatty‑acid side chain of Intermediate A‑1; reading uncertain
B3: polypeptide WX-010 (peptide)
peptide: Y[Aib]EGTFTSDYSI[Aib]LDKKAQKAFVEWLIAGGPSSGAPPPS-NH2
modifications: bridge 17-20; not fully specified (bridges); also: Glu bridge amino group carries fatty-acid side chain of Intermediate A-1
B4: polypeptide compound WX-001 (peptide)
peptide: Y[Aib]EGTFTSDYSI[Aib]LDKIAQKAFVKWLIAGGPSSGAPPPS-NH2
modifications: linker 20-24 via Ida bridge carrying fatty‑acid side chain of Intermediate A‑1; reading uncertain

Legend:
[1] = system: human plasma albumin; type: in vitro ADME
Description: (§1) To study the binding of the test compounds to human/mouse plasma albumin. • 1. Blank matrix preparation: On the day of the experiment, the plasma was thawed in cold water and centrifuged at 3220 rpm for 5 min to remove all the blood clots. The pH of the resulting plasma was measured and adjusted to 7.4±0.1 with 1% phosphoric acid or 1 N sodium hydroxide as desired. • 2. Dilution of the test compounds: the test compounds were dissolved in dimethyl sulfoxide (DMSO) to prepare stock solutions of 10 mM and 2 mM, respectively. 2 μL of the stock solution (2 mM) was diluted with 98 μL of DMSO to obtain a working solution of 40 μM. 10 μL of the stock solution was diluted with 240 μL of DMSO to obtain a working solution of control compounds of 400 μM. A working solution of the compounds (5 μL) was mixed evenly with a blank matrix (995 μL) at a ratio of 1:200 to prepare a loading matrix. • 3. Analytical procedure • 3.1 Equal amounts of 30 μL of the loading matrix (n=2) were transferred into a sample collection plate to prepare Time 0 (T0) samples for residue determination. The samples were immediately matched with corresponding blank buffer to a final volume of 60 μL, with a volume ratio of plasma (the loading matrix) to buffer being 1:1 in each well. Then, into the TO samples of the test compounds were respectively added 60 μL of 4% H3PO4 in H2O and 480 μL of stop solution containing internal standard. They were then stored at 2° C. to 8° C. together with other samples for further treatment. • 3.2 The remaining plasma samples were pre-incubated in a carbon dioxide incubator at 37±1° C. for 30 min. Protein-free samples (F samples) were prepared. Matrix-loaded samples (230 μL) were all transferred into polycarbonate tubes (n=2) and ultracentrifuged at 37° C. and 155,000×g (35000 rpm) for 4 h. • 3.3 To prepare T samples (test samples), an additional matrix-containing sample was transferred into a separate 96-well plate (sample incubation plate) and incubated at 37° C. for 4 h. • 3.4 At the end of centrifugation, 30 μL of protein-free samples (F samples) and 30 μL of T samples were taken from the second layer (beneath the upper layer) of the supernatant and transferred into a new sample collection plate. Each sample was mixed with corresponding blank buffer or matrix to a final volume of 60 μL, and the blank matrix:buffer volume ratio is 1:1. Into all the samples were added 60 μL of 4% H3PO4 solution in water and 480 μL of stop solution containing internal standard. The mixture was centrifuged at 4000 rpm for 20 min. 100 μL of supernatant for each sample was taken for LC-MS/MS analysis.

[2] = system: mouse plasma albumin; type: in vitro ADME
Description: as §1

[3] = set-up: species or system Cynomolgus macaques; conditions: cynomolgus monkey, in vivo, sc, 0.02 mg/kg
Description: (§2) To test the pharmacokinetic profiles of the compounds in Cynomolgus macaques. The pharmacokinetic characteristics in mammals following intravenous injection and subcutaneous injection of the compounds were tested using standard protocols. In the experiment, the candidate compounds were formulated into clear solution, which was administered to Cynomolgus macaques by single subcutaneous injection (SC, 0.02 mpk). The vehicle for subcutaneous injection was citrate buffer solution (20 mM, pH=7). The whole blood was collected and processed to get the plasma. The drug concentration was analyzed by LC-MS/MS, and the pharmacokinetic parameters were calculated using Phoenix WinNonlin software.

[4] = set-up: species or system C57BL/6 mice; conditions: mouse, in vivo, sc, 0.048 mg/kg
Description: as §2, with “C57BL/6 mice.” for “Cynomolgus macaques.”, “rodent animals” for “mammals”, “following” for “following intravenous injection and”, “administered” for “administered to Cynomolgus macaques”, “by” for “by single”, “0.048” for “0.02”

[5] = set-up: species or system SD rats; conditions: rat, in vivo, sc, 0.048 mg/kg
Description: as §2, with “SD rats.” for “Cynomolgus macaques.”, “rodent animals” for “mammals”, “following” for “following intravenous injection and”, “the rats” for “Cynomolgus macaques”, “0.048” for “0.02”, “for” for “for subcutaneous”

[6] = target: T1, GIPR; assay: cell-based or functional assay
[7] = target: GLP-1R (UniProt P43220 24-463, limits assumed); assay: cell-based or functional assay

Molecule	PPB % unbound (H) [1]	PPB % unbound (M) [2]	EC50, cAMP assay, (+) 1% HSA [6] [nM]	EC50, cAMP assay, (-) 1% HSA [6] [nM]	Ratio (EC50 (+) 1% HSA over (-) 1% HSA) [6]	EC50, cAMP assay, (+) 1% HSA [7] [nM]	EC50, cAMP assay, (-) 1% HSA [7] [nM]	Ratio (EC50 (+) 1% HSA over (-) 1% HSA) [7]	also measured
CC[C@H](C)[C@H](NC(=O)[C@H](CC(C)C)NC(=O)[C@H](Cc1c[nH]c2ccccc12)NC(=O)[C@H](CCC(=O)O)NC(=O)[C@@H](NC(=O)[C@H](Cc1ccccc1)NC(=O)[C@H](C)NC(=O)[C@@H]1CCCCNC(=O)CN(C(=O)COCCOCCNC(=O)COCCOCCNC(=O)CC[C@H](NC(=O)CCCCCCCCCCCCCCCCCCC(=O)O)C(=O)O)CC(=O)NCCCC[C@H](NC(=O)[C@H](CCCCN)NC(=O)[C@H](CC(=O)O)NC(=O)[C@H](CC(C)C)NC(=O)C(C)(C)NC(=O)[C@@H](NC(=O)[C@H](CO)NC(=O)[C@H](Cc2ccc(O)cc2)NC(=O)[C@H](CC(=O)O)NC(=O)[C@H](CO)NC(=O)[C@@H](NC(=O)[C@H](Cc2ccccc2)NC(=O)[C@@H](NC(=O)CNC(=O)[C@H](CCC(=O)O)NC(=O)C(C)(C)NC(=O)[C@@H](N)Cc2ccc(O)cc2)[C@@H](C)O)[C@@H](C)O)[C@@H](C)CC)C(=O)N[C@@H](C)C(=O)N[C@@H](CCC(N)=O)C(=O)N1)C(C)C)C(=O)N[C@@H](C)C(=O)NCC(=O)NCC(=O)N1CCC[C@H]1C(=O)N[C@@H](CO)C(=O)N[C@@H](CO)C(=O)NCC(=O)N[C@@H](C)C(=O)N1CCC[C@H]1C(=O)N1CCC[C@H]1C(=O)N1CCC[C@H]1C(=O)N[C@@H](CO)C(N)=O [WX-005]	NA/NA	NA/NA							
CC[C@H](C)[C@H](NC(=O)[C@H](CC(C)C)NC(=O)[C@H](Cc1c[nH]c2ccccc12)NC(=O)[C@H](CCC(=O)O)NC(=O)[C@@H](NC(=O)[C@H](Cc1ccccc1)NC(=O)[C@H](CCC(=O)O)NC(=O)[C@@H]1CCCCNC(=O)CN(C(=O)COCCOCCNC(=O)COCCOCCNC(=O)CC[C@H](NC(=O)CCCCCCCCCCCCCCCCCCC(=O)O)C(=O)O)CC(=O)NCCCC[C@H](NC(=O)[C@H](CCCCN)NC(=O)[C@H](CC(=O)O)NC(=O)[C@H](CC(C)C)NC(=O)C(C)(C)NC(=O)[C@@H](NC(=O)[C@H](CO)NC(=O)[C@H](Cc2ccc(O)cc2)NC(=O)[C@H](CC(=O)O)NC(=O)[C@H](CO)NC(=O)[C@@H](NC(=O)[C@H](Cc2ccccc2)NC(=O)[C@@H](NC(=O)CNC(=O)[C@H](CCC(=O)O)NC(=O)C(C)(C)NC(=O)[C@@H](N)Cc2ccc(O)cc2)[C@@H](C)O)[C@@H](C)O)[C@@H](C)CC)C(=O)N[C@@H](C)C(=O)N[C@@H](CCC(N)=O)C(=O)N1)C(C)C)C(=O)N[C@@H](C)C(=O)NCC(=O)NCC(=O)N1CCC[C@H]1C(=O)N[C@@H](CO)C(=O)N[C@@H](CO)C(=O)NCC(=O)N[C@@H](C)C(=O)N1CCC[C@H]1C(=O)N1CCC[C@H]1C(=O)N1CCC[C@H]1C(=O)N[C@@H](CO)C(N)=O [WX-009]	NA/NA	NA/NA							AUC(0-t) [3]: 4.74 µM·h; half-life [3]: 105 h; AUC(0-t) [4]: 1.99 µM·h; half-life [4]: 17 h; AUC(0-t) [5]: 1.09 µM·h; half-life [5]: 21 h
B1			19.3	0.16	121	7.63	0.036	212	
B2				0.074			0.014		
B3				0.14			0.017		
B4			16	0.324	49.3	16.6	0.0596	279	

From patent US20260055142A1, “PHARMACEUTICAL USE OF POLYPEPTIDE IN PREPARATION OF DRUGS FOR TREATING AND/OR PREVENTING DIABETES AND OBESITY AND RELATED DISEASES THEREOF” (GUANGDONG RAYNOVENT BIOTECH CO., LTD., priority 2022, published 2026)
